Measurements reported in article PMC5389812, “Rv3634c from Mycobacterium tuberculosis H37Rv encodes an enzyme with UDP-Gal/Glc and UDP-GalNAc 4-epimerase activities” (PLoS ONE, 2017).

Biological target: the molecule itself
Test: SEC; Superdex 200 16/600 GL column, FPLC buffer (20 mM Tris pH 8.0, 100 mM NaCl); calibrated with conalbumin, ovalbumin, carbonic anhydrase, ribonuclease A and aprotinin; molecular weight from Kav

B1: His-tagged Rv3634c (H3634) S121A mutant (enzyme)
chain: MRALVTGAAGFIGSTLVDRLLADGHSVVGLDNFATGRATNLEHLADNSAHVFVEADIVTADLHAILEQHRPEVVFHLAAQIDVRRSVADPQFDAAVNVIGTVRLAEAARQTGVRKIVHTSAGGSIYGTPPEYPTPETAPTDPASPYAAGKVAGEIYLNTFRHLYGLDCSHIAPANVYGPRQDPHGEAGVVAIFAQALLSGKPTRVFGDGTNTRDYVFVDDVVDAFVRVSADVGGGLRFNIGTGKETSDRQLHSAVAAAVGGPDDPEFHPPRLGDLKRSCLDIGLAERVLGWRPQIELADGVRRTVEYFRHKHTD
notes: not shown: His6, N-terminal, kept
With B1 the “stoichiometry N” value was 2.

B2: His-tagged Rv3634c (H3634) Y146F mutant (enzyme)
chain: MRALVTGAAGFIGSTLVDRLLADGHSVVGLDNFATGRATNLEHLADNSAHVFVEADIVTADLHAILEQHRPEVVFHLAAQIDVRRSVADPQFDAAVNVIGTVRLAEAARQTGVRKIVHTSSGGSIYGTPPEYPTPETAPTDPASPFAAGKVAGEIYLNTFRHLYGLDCSHIAPANVYGPRQDPHGEAGVVAIFAQALLSGKPTRVFGDGTNTRDYVFVDDVVDAFVRVSADVGGGLRFNIGTGKETSDRQLHSAVAAAVGGPDDPEFHPPRLGDLKRSCLDIGLAERVLGWRPQIELADGVRRTVEYFRHKHTD
notes: as for B1
In the case of B2, the “stoichiometry N” value is reported as 2.

B3: His-tagged Rv3634c (H3634) K150R mutant (enzyme)
chain: MRALVTGAAGFIGSTLVDRLLADGHSVVGLDNFATGRATNLEHLADNSAHVFVEADIVTADLHAILEQHRPEVVFHLAAQIDVRRSVADPQFDAAVNVIGTVRLAEAARQTGVRKIVHTSSGGSIYGTPPEYPTPETAPTDPASPYAAGRVAGEIYLNTFRHLYGLDCSHIAPANVYGPRQDPHGEAGVVAIFAQALLSGKPTRVFGDGTNTRDYVFVDDVVDAFVRVSADVGGGLRFNIGTGKETSDRQLHSAVAAAVGGPDDPEFHPPRLGDLKRSCLDIGLAERVLGWRPQIELADGVRRTVEYFRHKHTD
notes: as for B1
For B3, the “stoichiometry N” value was 2.
